Kd data for one molecule are collected here from article PMC9376891.

By Kd is commonly meant the constant that tells how readily two partners part at equilibrium.

This experiment has as its target Rae1(31-368)-Nup98(157-213) heterodimer (human), P78406. The experiment in a line: ITC. (In ITC the heat of successive injections is recorded.)

B1: VSV M NTE peptide (peptide)
chain: DEMDTHDPNQLRY
modifications: not checked
As to B1, the equilibrium dissociation constant (Kd) is 117 µM.
